Where a chain is given by its changes, count along the chain named.

Experiment [1] addresses T1, human dimeric IL-23 (eBiosciences 34-8239) (human, UniProt P29460 23-328; Q9NPF7 20-189).
T1 sequence (looked up) 1: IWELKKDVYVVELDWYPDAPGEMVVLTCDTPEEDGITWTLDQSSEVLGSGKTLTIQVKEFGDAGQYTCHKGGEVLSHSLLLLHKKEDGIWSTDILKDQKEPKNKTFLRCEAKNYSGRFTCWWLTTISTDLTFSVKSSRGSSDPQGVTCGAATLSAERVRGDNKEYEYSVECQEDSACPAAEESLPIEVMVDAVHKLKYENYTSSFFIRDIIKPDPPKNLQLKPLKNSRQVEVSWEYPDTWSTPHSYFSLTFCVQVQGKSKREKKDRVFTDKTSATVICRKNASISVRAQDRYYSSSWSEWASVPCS
T1 sequence (looked up) 2: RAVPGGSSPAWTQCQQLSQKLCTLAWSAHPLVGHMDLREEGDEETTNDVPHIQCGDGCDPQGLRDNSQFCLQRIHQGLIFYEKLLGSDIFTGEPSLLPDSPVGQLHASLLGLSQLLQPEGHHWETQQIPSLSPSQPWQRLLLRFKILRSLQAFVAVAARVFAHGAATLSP
Description: cell-based or functional assay.

The target of experiment [2] is T1, human dimeric IL-23 (eBiosciences …). Description: cell-based or functional assay. This is another data set of the same source.
Experiment [3] concerns the target T2, human IL-12 (human, UniProt P29459 23-219; P29460 23-328).
T2 construct: Bioassay used Prospec-Tany Cyt-362
T2 sequence (looked up) 1: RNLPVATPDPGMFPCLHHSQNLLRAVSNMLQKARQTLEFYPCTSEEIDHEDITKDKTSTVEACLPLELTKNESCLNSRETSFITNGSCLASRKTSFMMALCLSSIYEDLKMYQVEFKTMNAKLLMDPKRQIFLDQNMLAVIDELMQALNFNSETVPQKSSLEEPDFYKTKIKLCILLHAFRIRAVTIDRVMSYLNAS
T2 sequence (looked up) 2: T1 sequence (looked up) 1
Description: ELISA, human IL-12 coated on the plate; antibody concentration not given [Binding to Human IL-12].

The target of experiment [4] is T3, IL-23 p40-p19-His (human).
T3 construct: Single-chain fusion coated on the IL-23 ELISA plates; also called p40:p19-6×HIS
T3 chain: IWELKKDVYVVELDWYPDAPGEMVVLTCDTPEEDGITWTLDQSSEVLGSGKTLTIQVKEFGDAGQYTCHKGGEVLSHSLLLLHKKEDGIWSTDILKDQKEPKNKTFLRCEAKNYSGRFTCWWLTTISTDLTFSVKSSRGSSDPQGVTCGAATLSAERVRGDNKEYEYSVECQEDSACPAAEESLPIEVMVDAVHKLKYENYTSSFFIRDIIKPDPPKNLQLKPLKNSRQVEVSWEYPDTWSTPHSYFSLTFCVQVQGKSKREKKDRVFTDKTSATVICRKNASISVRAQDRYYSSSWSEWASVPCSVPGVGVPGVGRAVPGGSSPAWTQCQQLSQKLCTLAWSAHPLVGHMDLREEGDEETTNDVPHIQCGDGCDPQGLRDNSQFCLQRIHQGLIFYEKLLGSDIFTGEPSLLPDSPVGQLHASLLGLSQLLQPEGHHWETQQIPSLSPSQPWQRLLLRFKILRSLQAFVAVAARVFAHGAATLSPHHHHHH
Description: ELISA on IL-23 p40-p19-His (coated directly or through anti-His). The procedure:
For the indirect binding method anti-His antibody (Cat # A00613, GenScript Corp., New Jersey, USA) was added to the plates in 100 μl/well of PBS at 0.01-0.02 ug/ml. Plates were incubated 1 hour at 37C, or overnight at 4C. To block non-specific binding 100 μl/well PBS containing 10% goat serum (Cat #16210-072, Invitrogen, USA) was added to each well, after which plates were rinsed 5 times with de-ionized water. IL-23 p40-p19-His (SEQ ID 4) in 100 μl/well PBS/10% goat serum at 0.5 μg/ml was added and incubated for 1 hour at room temperature.
For the direct binding method IL-23 p40-p19-His (SEQ ID 4) was added to an ELISA plate in 100 μl PBS at 0.5 μg/ml. Plates were incubated 1 hour at 37C, or overnight at 4C. To block non-specific binding 100 μl/well PBS containing 10% goat serum (Cat #16210-072, Invitrogen, USA) was added to each well. Plates were incubated 1 hour at room temperature.
After IL-23 binding, plates were rinsed 5 times with de-ionized water. To each well was added 50 μl PBS/10% goat serum. Test samples were then added at 50 μl/well. Plates were incubated 1 hour at room temperature and were rinsed 5 times with de-ionized water. To each well was added 100 μl peroxidase-conjugated goat anti-rabbit IgG (Cat. #111-035-008, Jackson Immuno Research) diluted 1:5000 in PBS/10% goat serum. Plates were incubated 1 hour at room temperature, then washed 5 times with de-ionized water. TMB substrate (Thermo Scientific, Rockford, Ill., USA) was added at 100 μl/well. The reaction was stopped with 100 μl N H₂SO₄ (JT Baker, Phillipsburg, N.J., USA). Absorbance was measured at 450 nm using a Molecular Devices M2 plate reader.

For experiment [5], the target named is T4, human IL-6 (human, UniProt P05231 30-212). Description: cell-based or functional assay.
For experiment [6], the target named is T5, Primate IL-6 (Macaca mulatta, UniProt P51494).
T5 sequence (cytokine, looked up): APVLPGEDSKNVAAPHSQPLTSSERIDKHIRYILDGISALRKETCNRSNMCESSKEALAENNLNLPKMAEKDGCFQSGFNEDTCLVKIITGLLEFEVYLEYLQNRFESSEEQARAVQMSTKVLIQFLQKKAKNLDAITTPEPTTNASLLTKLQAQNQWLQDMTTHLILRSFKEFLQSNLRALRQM
Description: cell-based or functional assay.

Experiment [7] has as its target T4, human IL-6. Description: SPR (SensiQ Pioneer), mAb captured on protein G, IL-6 as analyte (3×FLAG-IL-6 or IL-6 CYT-213, 1-100 nM), 25 C, 1:1 model. The procedure:
Equilibrium constants for rabbit human chimeric mAbs were determined by binding the mAb to the protein G coated chip followed by binding of each analyte (IL-6 or IL-23) to its respective mAb. In order to minimize mass transfer effects, the surface densities of the mAbs for each analyte were adjusted so that as analyte binding approached saturation its corresponding RU fell between 200 and 300. […] For each binding and dissociation cycle the chip surface was regenerated with 15 uL of 20 mM NaOH (5671-02, Mallinckrodt Baker, Philliphsburg, N.J.). The assay temperature was maintained at 25° C. with an analyte flow rate of 50 μL/min and included a 2 minute association phase and 10-30 minute dissociation phase. The on/off rates (kₐ/kd) and dissociation constants (KD) were determined using the format described above along with pseudo-first-order 1:1 interaction model software (Qdat, ICx Nomadics, Stillwater, Okla.).

Experiment [8] deals with T3, IL-23 p40-p19-His. Description: ELISA on IL-23 p40-p19-His.
Experiment [9] concerns the target T2, human IL-12. Description: cell-based or functional assay.

B1: 49B7 chimeric mAb (antibody, V domains shown)
VH: QSLEESGGRLVTPGGSLTLTCTVSGIDLSDYDMSWVRQAPGKGLEWIGIVYDIGTIYYAPWAEGRFTISKTSTTVDLKMSSLTTEDTATYFCAREAPGYSDGDIWGPGTLVTVSS
VL: ALVMTQTPSSVSAAVGGTVTINCQASETVDNNKRLSWYQQKPGQPPKLLIYGAATLASGVPSRFKGSGSGAHFTLTISNVQREDAATYVCGGYKDSTDVGFGGGTELEILR
notes: Rabbit/human chimeric IgG (human IgG1, kappa); HEK293
With B1, the “EC50, inhibition of IL-23 induced IL-17 secretion by mouse spleen cells” value (from here on “EC50, inhibition … by mouse spleen cells”) in experiment [1] came out at 0.988 ng/mL. Besides, the “IC50 (read off the curve) (IL-17 from mouse splenocytes, OD450)” value in experiment [2] was around 0.6 ng/mL. The binding result in experiment [3] was “binds”.

B2: 35H4 chimeric mAb (antibody, V domains shown)
VH: B1 VH with V75M, R94T
VL: LVMTQTPSSVSAAVGGTVTINCQASETVGNNNRLSWYQQKPGQPPKLLIYGAATLASGVPSRFKGSGSGAHFTLTISNVQREDVATYVCGGYKDSTDVGFGGGTELEILR
notes: Rabbit/human chimeric IgG (human IgG1, kappa); HEK293; also called 35H4 clone
As for B2, the binding result in [4] is “binds”.

B3: 34E11 chimeric mAb (antibody, V domains shown)
VH: QEQLKESGGGLVTPGGSLTLTCTVSGFSLSTYDINWVRQAPGKGLEWIGYIYRGSPYYADWAKGRFTISSTSTTVGLKITSPTTVDTATYFCTRNLYSVNVLWGPGTLVTVS
VL: LVMTQTPSSTSAAVGDTVTIKCQASQSISSRLAWYQQKPGQPPKLLIYSASTLASGVPSRFKGSGSGTDYTLTISGVQREDAATYYCLGSYSNTIRTFGAGTKVEIKR
notes: Rabbit/human chimeric IgG (human IgG1, kappa); HEK293; also called 34E11 clone
On to B3, for which the “EC50, inhibition … by mouse spleen cells” value in [1] came to 0.05 ng/mL. Moreover, the binding result in experiment [4] was “binds”.

B4: 18D4 chimeric mAb (antibody, V domains shown)
VH: QSVEESGGRLVTPGTPLTLTCTVSGFSLSSYAMTWVRQAPGKGLEWIGTSYVYSGDTWYASWVKGRFTISKTSTTVDLKITSPTTEDTATYFCARVGDYDDYGAHDVFDSWGPGTLVTVSS
VL: YDMTQTPASVEVAVGGTVTIKCQASESISSWLSWYQQKPGQRPKLLLYRASTLASGVSSRFSGSGYGTEFTLTISGVQCEDAATYYCQQGYTGGNVDNAFGGGTKVVVVR
notes: Rabbit/human chimeric IgG (human IgG1, kappa); HEK293; also called 18D4 clone
With B4, in experiment [5], the “EC50, inhibition of IL-6 induced B9 cell proliferation” value is 0.054 ng/mL. For the same molecule, in [6], the “IC50 (read off the curve) (B9 proliferation, OD570-600)” value was around 4 ng/mL. In experiment [7], the Kd is 0.128 nM, the koff was 8.49e-05 s⁻¹ and the kon stood at 666000 M⁻¹ s⁻¹.

B5: 16C6 chimeric mAb (antibody, V domains shown)
VH: QSVEESGGRLVTPGTPLTLTCTVSGFSLNSYSMSWVRQAPGKGLEWIGVIGLGGSAYYASWAKGRFTISGASTTVDLKITSPTTEDTATYFCARATYSDDNIWGPGTLVTVSS
VL: DVVMTQTPSSTSAAVGGTVTIKCQASQSISSWLSWYQQKPGQRPKPLIVRASTLASGVPSRFKGNRSGTEYTLTISGVQREDAAAYYCLGGDGNVSNFGGGTKVVVVR
notes: as for B1
As to B5, the “EC50, inhibition … by mouse spleen cells” value in [1] turned out to be 0.219 ng/mL. Moreover, the binding result in [4] is “binds”.

B6: 4F3 chimeric mAb (antibody, V domains shown)
VH: QSVEESGGRLVTPGTPLTLTCAVSGFSLSGYTMIWVRQAPGEGLEWIGIISSSGNTYYASWVKGRFTISKTSTTVDLKMISPTTEDTATYFCARGSGAYISDYFNVWGPGTLVTVSS
VL: FELTQTPSSVEAAVEGTVTIKCQASQSIDSWLSWYQQKPGQPPKLLIYSASKLAPGVPSRFSGSGSGTQFTLTIGDLECADAATYYCQSYYDVNAGYGFGGGTEVVVVR
notes: Rabbit/human chimeric IgG (human IgG1, kappa); HEK293; also called mAb 4F3
In the case of B6, in experiment [1], the “EC50: concentration necessary to inhibit bioactivity of 50 pg/ml of IL-6” value was determined as 2.34 ng/mL. Further, the binding result in experiment [8] is listed as “binds”. Moreover, the “IC50 (read off the curve) (interferon-gamma from NK92 cells, OD450)” value in experiment [9] is around 2 ng/mL.

B7: 5C5 chimeric mAb (antibody, V domains shown)
VH: QSVEESGGRLVTPGTPLTLTCTVSGFSLSSYTMIWVRQAPGEGLEWIGIISAGGSAYYASWVNGRFTISKTSTTVDLKMTSPTTGDTATYFCARGSGTYTSDYFNIWGPGTLVTVSS
VL: B6 VL with E15G, S33A, P55T, G75S, V93A, E104K
notes: Rabbit/human chimeric IgG (human IgG1, kappa); HEK293; also called mAb 5C5
As for B7, the “EC50: concentration necessary to inhibit bioactivity of 50 pg/ml of IL-6” value in [1] turned out to be 1.91 ng/mL. In [8], the binding result is “binds”. The “IC50 (read off the curve) (interferon-gamma from NK92 cells, OD450)” value in experiment [9] was around 0.9 ng/mL.

Source of the values: patent US20160194391A1 (AstraZeneca / MedImmune, published 2016).
